Data: WO2015137441A1

Biological target: myrNAP22 (myristoylated NAP22), rat (rat) (UniProt Q05175)
Assay: immunoprecipitation with control beads, supernatant on SDS-PAGE, Coomassie staining

UniProt Q05175, sequence (Q05175 2-220 limits assumed): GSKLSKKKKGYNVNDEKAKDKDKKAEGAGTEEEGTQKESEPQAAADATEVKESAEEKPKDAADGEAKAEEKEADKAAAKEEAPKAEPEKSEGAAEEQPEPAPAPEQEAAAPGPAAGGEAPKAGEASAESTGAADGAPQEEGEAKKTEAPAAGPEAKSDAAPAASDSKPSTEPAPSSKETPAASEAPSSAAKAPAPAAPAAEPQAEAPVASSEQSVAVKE

signal intensity of myrNAP22 left in the supernatant (lane 2) relative to input (lane 3): 90%
Substance: control clone (an antibody clone randomly cloned from the library) (scFv)
